Results: the supplement of paper PMC9170038

Test system: MS2 coat protein
Test: apparent KD of MS2 coat protein; designed switch direction (-1 OFF switch, 1 ON switch): -1; higher = weaker reporter binding
Method in brief: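 The buffer was Tris-HCl pH 7.5 with KCl, MgCl2, BSA, DTT, tRNA and Tween-20. In it, SNAP-549-labelled MS2 coat protein was titrated in doubling steps from 0.7 or 1.5 nM to 3 µM over chip-bound RNA switches transcribed by stalled E. coli RNA polymerase on Illumina chips. Apparent KD is the per-design median over clusters of curve fits to normalised fluorescence.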

[1] = Eterna round: R95, input ligand: microRNA oligo, concentration not stated
[2] = input ligand: microRNA oligo, concentration not stated
[3] = Eterna round: R95, input ligand: FMN 200 uM
[4] = Eterna round: R95, input ligand: none

| Sequence | apparent KD of MS2 coat protein [1] [nM] | apparent KD of MS2 coat protein (input ligand: FMN 200 uM) [nM] | apparent KD of MS2 coat protein (input ligand: none) [nM] | other results |
| --- | --- | --- | --- | --- |
| CUUUUGUGAGGAUAUCAGUAGUAUAAAAAUAAAAUUACUACUGAGAAGGCACAUGAGGAUCACCCAUGUUCCUC [salish99_ex4_r3_017] (puzzle: Exclusion 4) | 37.4 |  |  |  |
| UUAUACAAGCAAAGAUCCCACAUGAGGAUCACCCAUGUGCUCGUCUUAUAAGGUACUGUGACGAAAGUCACGGUACC [Eli 87 + Mat D67 6] (Eterna round: R97, puzzle: Sensor, turn-off variant 1) |  | 42.3 | 41.6 |  |
| GCGGACUUGAUCGUGAGAUCAGAGACAUGAGGAUCACCCAUGUAGGAUAUCGAUUCGUUUCGAAUCGAGAAGGGCGUGGUCCGC [JL denovo 15] (Eterna round: R96, puzzle: Exclusion NG 3) |  | 83.9 | 70.2 | apparent KD of MS2 coat protein [2]: 52.2 nM |
| GAAAACGUAGGAUAUUAAUACUCAGACAUGAGGAUCACCCAUGUUUGGUGGGUUUAAGAAUGAGAAGGGCGAUGAA [EX5 #6] (Eterna round: R97, puzzle: Exclusion 5) |  | 49 | 49 |  |
| GGUGGACAUGAGGAUCACCCAUGUGAGGAUAUCGGCUAUCUACUCGCUGACGGCUGCUCGAGAAGGCGCAUUGU [Exclusion 1 V90] (puzzle: Exclusion 1) | 44.8 |  |  |  |
| CGCAUGUCAGGAUAUCGUGCAUACAACGAAAGUUCUAUGUGCGAGAAGGGACAUGAGGAUCACCCAUGUUAGCG [Omei Ex4 A9] (Eterna round: R97, puzzle: Exclusion 4) |  | 741 | 604 |  |
| AAUGCCAGUGUCAGGAUAUCCGGAGGGAAACCUCCGGAGAAGGGACAUGAGGAUCACCCAUGUAUGUAACCUGC [AK-MS2ROC-r4-Bmoexclusion4-7] (Eterna round: R97, puzzle: Brourd's mod of Exclusion 4) |  | 35.2 | 23.6 |  |
| AAACAAAAGGCAGGAUAUCCUCGUCAACACCACAAGUCCACUCGGACAUGAGGAUCACCCAUGUAGGAGAAGGGCCAGAAAUAC [Bevearla] (Eterna round: R96, puzzle: Exclusion NG 2) |  | 88.8 | 19.6 | apparent KD of MS2 coat protein [2]: 17.5 nM |
| CCAUAGGGAGGAUAUCCAAUAUAUGACAUGAGGAUCACCCAUGUUUCCACUCGUACCUCCGGAGAAGGCCCAUACC [Ex5 #9] (Eterna round: R97, puzzle: Exclusion 5) |  | 22 | 27 |  |
| CUCCUCAUGACGCCUAAACACAUGAGGAUCACCCAUGUACAGGCUUUUUGUCGUCUUAUAAUAAAACCGAGGAUACG [Orlaorusti] (Eterna round: R96, puzzle: Sensor v3, turn-off variant 1) |  | 17.8 | 23.2 | apparent KD of MS2 coat protein [2]: 52.2 nM |
| GUGACCAUAGGAUAUACAUGAGGAUCACCCAUGUGCAAGUCGGAAGACCUGCGGUCAUGUAGAAGGAUGUAAUU [EX3 A.19] (Eterna round: R97, puzzle: Exclusion 3) |  | 18.3 | 20.9 |  |
| AGCUGUGGCCGAGGAUAUCUAAAUUCUUAAAACGAAAUAUAAUCGAACAUGAGGAUCACCCAUGUAGAGAAGGCGGUCUCAGCA [Eli eng2 - 059] (Eterna round: R96, puzzle: Exclusion NG 2) |  |  |  | apparent KD of MS2 coat protein [2]: 13.4 nM |
| AAAGAUCAAGGAUAUGCAACGGCACACAUGAGGAUCACCCAUGUGAUGUACGUUGUGUCGGCAGAAGGUGAGGGUC [JR_Ex5_Sub056] (Eterna round: R97, puzzle: Exclusion 5) |  | 13.8 | 14.3 |  |
| UGAUCUAGCGGAGGAUAUACAUGAGGAUCACCCAUGUAAAUCGCUGAACCGUAGUUCAGCAUCAUGUAGAAGGCCGCUAGAUCU [MOD2 ENG2 3.62 by JL] (Eterna round: R96, puzzle: Exclusion NG 2) |  | 473 | 70.4 | apparent KD of MS2 coat protein [2]: 55.6 nM |
| GUAAACGAAGAGGAUAUUUGAUAUCAUAGCUUCAAAGAAGGCUUCACAUGAGGAUCACCCAUGUGAUCUUCAAA [Mat - Exclusion 6 - JL Mod - D22] (Eterna round: R97, puzzle: Exclusion 6) |  | 142 | 20.7 |  |
| CUUGUUUAAGUGAGGAUAUACUGUUAGUAAUGAUUGUAGAAGGUACAUGAGGAUCACCCAUGUUUAUUUAUAUU [JR_BME4_Sub042] (puzzle: Brourd's mod of Exclusion 4) | 16.4 |  |  |  |
| AAGCAUGGAGGAUAUACAUGAGGAUCACCCAUGUCCAGGUCCACGGGUAUUUUGUUGCGUAGAAGGCCAUGUAG [Eternabot (L2) Solution 21] (Eterna round: R97, puzzle: Exclusion 3) |  | 242 | 46.8 |  |

| Sequence | apparent KD of MS2 coat protein [1] [nM] | apparent KD of MS2 coat protein (input ligand: FMN 200 uM) [nM] | apparent KD of MS2 coat protein (input ligand: none) [nM] | other results |
| --- | --- | --- | --- | --- |
| GGUUGGCGAGGAUAUACAUGAGGAUCACCCAUGUGAGAGAAAAAAGUGAGGAAGAACAGUAGAAGGCGCUGACG [salish99_ex3_r3_036] (puzzle: Exclusion 3) | 74.2 |  |  | apparent KD of MS2 coat protein [3]: 162 nM; apparent KD of MS2 coat protein [4]: 106 nM |
| GUAGUGACUCGAGGAUAUCCCGACUCCUGGUCAGGAGAAGGCGACGUCAUAGCACAUGAGGAUCACCCAUGUCUUACACAUACG [Eternabot solution 32] (Eterna round: R96, puzzle: Exclusion NG 1) |  | 25.6 | 23.9 | apparent KD of MS2 coat protein [2]: 19.5 nM |
| GGCAAUAUGUAGGAUAUCGUAUUGGAAACAAUACGAGAAGGGCAAACAUGAGGAUCACCCAUGUUCCUUAAGCC [Mat - Exclusion 6 - Eli Mod - D68] (puzzle: Exclusion 6) | 17.6 |  |  | apparent KD of MS2 coat protein [3]: 18.6 nM; apparent KD of MS2 coat protein [4]: 16.6 nM |
| AAUAACAGAGGAUAUACUAUUUUAUGUAUUUAUUAUUUUAAACAUGAGGAUCACCCAUGUAGAAGGCUGAUUAA [JMF 42] (puzzle: Exclusion 2) | 30.8 |  |  |  |
| AGCUGUGGCCGAGGAUAUCUACCUUCAAUAACCGAAAUAUAAUCGGACAUGAGGAUCACCCAUGUAGAGAAGGCGGUCUCAGCA [Eli eng2 - 086] (Eterna round: R96, puzzle: Exclusion NG 2) |  |  |  | apparent KD of MS2 coat protein [2]: 10.9 nM |
| CGGUGCUGAGGAUAUACAUGAGGAUCACCCAUGUGUUCUAGCUAGCGUACUGGCAGAUGUAGAAGGCGGUACUG [JL-ex3-3.43 Brourd mod] (puzzle: Exclusion 3) | 17.1 |  |  |  |
| AGAGUGCUGCGAGGAUAUACAUGAGGAUCACCCAUGUUUUCGUGUGAGGCUUUGCCUCACACGAAGUAGAAGGCGCAGUACUCA [Mat - Exclusion NG 2 - Mod of JL - D32] (Eterna round: R96, puzzle: Exclusion NG 2) |  | 7.28 | 10.9 | apparent KD of MS2 coat protein [2]: 9.46 nM |
| CUAACACAUGAGGAUCACCCAUGUGAGGAUAUGCGUACGUUGUCCGUAGGCGACGUGCGCAGAAGGCGCUUGGU [JL-ex1-3.20 Eli mod] (puzzle: Exclusion 1) | 51.9 |  |  |  |
| CGCACACAUGAGGAUCACCCAUGUGAGGAUAUCAUGCUUCGUAGUAAACUACGAAGUGUGAGAAGGCACAUGCC [Omei Ex1 D7] (Eterna round: R97, puzzle: Exclusion 1) |  | 24.2 | 18.4 |  |
| ACAAGCUUUAGGCGUGUGAACAUGAGGAUCACCCAUGUAAAGUAGGUUAGGAGGUCUGUAAGGGAUGCUCGUCUUAU [JR_SWV3TOV1_Sub090] (puzzle: Sensor v3, turn-off variant 1) | 45.5 |  |  | apparent KD of MS2 coat protein [3]: 89.4 nM; apparent KD of MS2 coat protein [4]: 113 nM |
| UAAUACAAGUAAAGAUCCUACAUGAGGAUCACCCAUGUGCUCGUCUUGUAAAGUACUAUCACGAAAGUGAUAGUACU [Mat - Sensor v3 - turn-off var 1 - Eli Mod - D86] (puzzle: Sensor v3, turn-off variant 1) | 22 |  |  | apparent KD of MS2 coat protein [3]: 30.3 nM; apparent KD of MS2 coat protein [4]: 44.8 nM |
| GUUAAUUGUCACAUGGGUGACAUGAGGAUCACCCAUGUCACAAGCUUUUUGCUCGUCUUAUAAUUAACCCAUGUGAC [Stov1/12-A2] (Eterna round: R97, puzzle: Sensor, turn-off variant 1) |  | 14.7 | 13.9 |  |
| CCAAGCUUAUUCAUUAACCACAUGAGGAUCACCCAUGUCUAGGCAAUUAUGACUUGCCCAUCAGGUGCUCGUCUUAU [Sensor-V1 #33] (Eterna round: R97, puzzle: Sensor, turn-off variant 1) |  | 68.7 | 72.3 |  |
| UGAGAGUGAGGAUAUACGUCGCUGGUCCGGAUGGACGCAUGACAUGAGGAUCACCCAUGUAGAAGGCAUUUCCC [Enxela Mod 6 - Jieux - Exclusion 2] (Eterna round: R97, puzzle: Exclusion 2) |  | 75.2 | 26.9 |  |
| GCUUGGCGAGGAUAUACAUGAGGAUCACCCAUGUGAGAGAAAGAAGUGAGGAAGAAAAGUAGAAGGCGCUGAGG [Mat - Exclusion 3 - Mod of Salish D60] (puzzle: Exclusion 3) | 50.5 |  |  | apparent KD of MS2 coat protein [3]: 165 nM; apparent KD of MS2 coat protein [4]: 75.4 nM |
| UUGUUAUAUGUAGGAUAUGCGUGUUAUUAUUAUGCAGAAGGACAUGAGGAUCACCCAUGUGUAUUAUUAUUAUAUAUUAUAUAU [Title] (Eterna round: R96, puzzle: Exclusion NG 1) |  |  |  | apparent KD of MS2 coat protein [2]: 15.4 nM |
| GCAGCAUAGUCGGAAACGACAGAACAUGAGGAUCACCCAUGUCAGGAUAUGGUCUGGAUUACAGGCCAGAAGGGACGAAGCUGC [Eli exng3 - 010] (Eterna round: R96, puzzle: Exclusion NG 3) |  | 13.5 | 16 | apparent KD of MS2 coat protein [2]: 11.4 nM |
